Results published in paper PMC7370943.

These substances were tested against T1, recombinant human IL-33 (human).
T1 sequence (O95760 whole entry, looked up): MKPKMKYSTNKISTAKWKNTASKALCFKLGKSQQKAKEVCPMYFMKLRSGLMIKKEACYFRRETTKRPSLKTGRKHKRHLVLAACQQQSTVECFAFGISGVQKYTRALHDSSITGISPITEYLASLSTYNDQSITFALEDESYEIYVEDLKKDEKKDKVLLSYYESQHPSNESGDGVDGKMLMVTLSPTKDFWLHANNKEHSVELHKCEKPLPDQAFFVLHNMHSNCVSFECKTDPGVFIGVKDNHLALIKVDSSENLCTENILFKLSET

| Substance | IC50 of inhibition of IL-33-induced NF-κB luciferase reporter activity in HEK293T cells transfected with human ST2; IL-33 pre-incubated 30 min with the trap (blocks IL-33 acting on ST2 of the cells) |
| --- | --- |
| human IL-33trap with 12xGGS linker (sIL-1RAcP-12xGGS-sST2) (from UniProt Q01638 19-328) (receptor) | 42 pM |
| human IL-33trap with 12xGGS linker and human IgG1 Fc (from UniProt Q9NPH3 21-367; Q01638 19-328) (Fc fusion) | 57 pM |
| human IL-33trap without GGS linker fused to human IgG1 Fc (sIL-1RAcP-sST2-Fc) (from UniProt Q01638 19-328) (Fc fusion) | 90 pM |

Other lines, results leading:

| IC50 of inhibition of IL-33-induced NF-κB luciferase reporter activity in HEK293T cells transfected with human ST2; IL-33 pre-incubated 30 min with the trap (blocks IL-33 acting on ST2 of the cells) | Substance |
| --- | --- |
| 194 pM | human IL-33trap with 7xGGS linker (sIL-1RAcP-7xGGS-sST2) (from UniProt Q01638 19-328) (receptor) |
| 67 pM | human IL-33trap with 7xGGS linker and human IgG1 Fc (from UniProt Q9NPH3 21-367; Q01638 19-328) (Fc fusion) |
| 748 pM | human IL-33trap without Fc and GGS linker (sIL-1RAcP-sST2) (from UniProt Q01638 19-328) (receptor) |

The substances below were run against recombinant human IL-13 (human) (UniProt P35225).
UniProt P35225, sequence (P35225 25-146): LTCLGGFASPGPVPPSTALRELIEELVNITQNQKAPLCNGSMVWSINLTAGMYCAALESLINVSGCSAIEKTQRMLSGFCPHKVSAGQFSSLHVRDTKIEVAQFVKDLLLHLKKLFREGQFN

| IC50 of inhibition of IL-13-induced STAT6-dependent luciferase activity in HEK293T cells transfected with human IL-4Rα and IL-13Rα1; cytokine pre-incubated with the trap | Substance |
| --- | --- |
| 434 pM | human IL-4/13trap (from UniProt P78552 22-343; P24394 26-232) (receptor) |
